Among the data in publication PMC4168798 (ACS Chemical Biology, 2014) are Kd values, retold here.

The labels stand for the following.
T1: Bcl-w (c-myc-tagged, without the C-terminal trans-membrane region) (human)
T1 chain: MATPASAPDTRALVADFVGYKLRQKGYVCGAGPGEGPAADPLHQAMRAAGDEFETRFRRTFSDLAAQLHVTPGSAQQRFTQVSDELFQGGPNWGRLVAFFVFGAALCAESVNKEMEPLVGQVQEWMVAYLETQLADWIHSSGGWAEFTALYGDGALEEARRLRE

T2: Bfl-1 (c-myc-tagged, without the C-terminal trans-membrane region) (human)
T2 sequence (Q16548 whole entry, looked up): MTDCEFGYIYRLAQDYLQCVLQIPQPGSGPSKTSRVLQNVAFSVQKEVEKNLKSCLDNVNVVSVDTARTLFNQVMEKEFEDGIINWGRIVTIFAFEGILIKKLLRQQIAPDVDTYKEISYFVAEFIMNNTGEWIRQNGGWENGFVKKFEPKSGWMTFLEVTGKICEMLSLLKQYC

B1: Kaposi sarcoma herpesvirus Bcl-2 (domain or fragment)
chain: MDEDVLPGEVLAIEGIFMACGLNEPEYLYHPLLSPIKLYITGLMRDKESLFEAMLANVRFHSTTGINQLGLSMLQVSGDGNMNWGRALAILTFGSFVAQKLSNEPHLRDFALAVLPVYAYEAIGPQWFRARGGWRGLKAYCTQVLTRRRGRR

Common to all, as to assay: fluorescence polarisation
In general terms: Polarisation of emitted light reports the rotation of a fluorescent probe.

The target in experiment [1] is B1.
The target of experiment [2] is Bim_A2eT_I3dL, N-terminal fluorescein (N-terminal 5/6-fluorescein amidite; C-terminal amidation).
In experiment [3] the target is T1, Bcl-w (c-myc-tagged, without the …).
Experiment [4] addresses Mcl-1 (c-myc-tagged, without the N-terminal domain and the C-terminal trans-membrane region) (human).
Experiment [5] has as its target T2, Bfl-1 (c-myc-tagged, without the …).
Experiment [6] addresses Bcl-xL (c-myc-tagged, without the C-terminal trans-membrane region) (human).
The target of experiment [7] is Bcl-2 (c-myc-tagged, without the C-terminal trans-membrane region) (human).

Mcl-1 (c-myc-tagged, without the N-terminal domain and the C-terminal trans-membrane region) (human), sequence (Q07820 whole entry, the tested form may be a part): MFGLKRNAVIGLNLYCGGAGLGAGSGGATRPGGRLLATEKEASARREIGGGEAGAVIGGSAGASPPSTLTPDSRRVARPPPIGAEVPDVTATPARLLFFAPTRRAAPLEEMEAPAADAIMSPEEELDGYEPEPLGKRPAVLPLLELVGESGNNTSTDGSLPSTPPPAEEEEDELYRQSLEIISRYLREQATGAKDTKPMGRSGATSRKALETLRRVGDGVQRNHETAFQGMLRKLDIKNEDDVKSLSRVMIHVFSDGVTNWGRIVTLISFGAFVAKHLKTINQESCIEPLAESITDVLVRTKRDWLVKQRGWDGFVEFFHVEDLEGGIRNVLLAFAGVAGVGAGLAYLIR
Bcl-xL (c-myc-tagged, without the C-terminal trans-membrane region) (human), sequence (Q07817 whole entry): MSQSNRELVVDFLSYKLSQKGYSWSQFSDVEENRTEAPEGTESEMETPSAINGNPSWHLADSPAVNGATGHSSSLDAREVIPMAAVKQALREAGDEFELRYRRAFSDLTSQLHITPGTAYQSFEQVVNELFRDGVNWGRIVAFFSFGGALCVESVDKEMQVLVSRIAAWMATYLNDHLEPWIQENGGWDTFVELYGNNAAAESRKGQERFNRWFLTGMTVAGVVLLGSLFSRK

As for {5/6‑fluorescein amidite}-RPEIWMTQGLRRLGDEINAYYAR-NH2 (designed binder) [MS1, N-terminal fluorescein], the dissociation constant (Kd) (usually a measure of binding affinity in units of concentration) in experiment [1] is 2.9 nM.
As for {5/6‑fluorescein amidite}-RPEIWLTQSLQRLGDEINAYYAR-NH2 (designed binder) [MS2, N-terminal fluorescein], the equilibrium dissociation constant (Kd) in experiment [1] was < 1 nM.
On to B1, for which the Kd in experiment [2] came out at 1 nM.
Take {5/6‑fluorescein amidite}-RPEIWMGQGLRRLGDEINAYYAR-NH2 (designed binder) [A12, N-terminal fluorescein]: the dissociation constant Kd came out at 210 nM in experiment [3]; 4 nM in experiment [1]; 2.4 nM in experiment [4]; 22 nM in experiment [5]; 9.8 nM in experiment [6]; 42 nM in experiment [7].
In the case of {5/6‑fluorescein amidite}-RPEIWLGQSLQRLGDEINAYYAR-NH2 (designed binder) [B3, N-terminal fluorescein], the Kd in experiment [3] was 16 nM; in experiment [1] it was 1.43 nM; in experiment [4], < 1 nM; in experiment [5], 26 nM; in experiment [6], 4.2 nM; in experiment [7], 35 nM.
As to {5/6‑fluorescein amidite}-RPEIWLTQHLQRLGDEINAYYAR-NH2 (designed binder) [MS3, N-terminal fluorescein], the Kd was 340 nM in experiment [3], 790 nM in experiment [5] and > 3000 nM in experiment [7].
